# In US20140087995A1 (published 2014):
# Numbered stars: 1 amine (or outer) side, 2 acyl side, 3 side chain; on linkers, the order of the positions; unused ones are H or OH. Bridge positions count the residues as written; N and C are the ends. Side chains are listed from the residue outwards. Ends that are not written are not given here. * marks the point of attachment. C20 diacid = O=C(O)CCCCCCCCCCCCCCCCCCC(=O)*; γGlu = O=C(O)[C@H](CCC(=O)[*:2])N[*:1]; AEEA = NCCOCCOCC(=O)O
# T1: human calcitonin receptor (human, UniProt P30988 25-474)
# T1 construct: whole, on cells; Assay used cell membranes of the transfected BHK cells; also called hCTR; hCT
# T1 sequence (looked up): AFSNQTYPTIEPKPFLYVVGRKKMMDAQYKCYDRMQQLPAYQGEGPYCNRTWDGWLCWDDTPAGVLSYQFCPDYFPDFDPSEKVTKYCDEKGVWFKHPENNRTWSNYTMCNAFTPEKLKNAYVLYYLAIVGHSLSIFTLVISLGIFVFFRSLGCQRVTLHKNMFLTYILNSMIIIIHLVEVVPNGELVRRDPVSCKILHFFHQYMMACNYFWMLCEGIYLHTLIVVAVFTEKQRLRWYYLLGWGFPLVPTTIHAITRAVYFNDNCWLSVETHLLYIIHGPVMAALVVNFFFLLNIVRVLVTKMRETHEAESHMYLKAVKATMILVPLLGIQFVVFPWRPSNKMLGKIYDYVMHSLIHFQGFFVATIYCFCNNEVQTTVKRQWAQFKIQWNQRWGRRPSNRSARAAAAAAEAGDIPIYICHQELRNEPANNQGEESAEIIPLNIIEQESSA
# B1: N^ε-[(4S)-4-carboxy-4-(19-carboxynonadecanoylamino)butanoyl]Lys[Arg1,Arg17,Pro21,Pro27,His35]-h-amylin (peptide)
# peptide: K([γGlu-C20 diacid])RCNTATCATQRLANFLRHSSPNFGAIPSSTNVGSHTY-NH2
# modifications: disulfide 3-8; N-terminus assumed
# SMILES: CC[C@H](C)[C@H](NC(=O)[C@H](C)NC(=O)CNC(=O)[C@H](Cc1ccccc1)NC(=O)[C@H](CC(N)=O)NC(=O)[C@@H]1CCCN1C(=O)[C@H](CO)NC(=O)[C@H](CO)NC(=O)[C@H](Cc1c[nH]cn1)NC(=O)[C@H](CCCNC(=N)N)NC(=O)[C@H](CC(C)C)NC(=O)[C@H](Cc1ccccc1)NC(=O)[C@H](CC(N)=O)NC(=O)[C@H](C)NC(=O)[C@H](CC(C)C)NC(=O)[C@H](CCCNC(=N)N)NC(=O)[C@H](CCC(N)=O)NC(=O)[C@@H](NC(=O)[C@H](C)NC(=O)[C@@H]1CSSC[C@H](NC(=O)[C@H](CCCNC(=N)N)NC(=O)[C@@H](N)CCCCNC(=O)CC[C@H](NC(=O)CCCCCCCCCCCCCCCCCCC(=O)O)C(=O)O)C(=O)N[C@@H](CC(N)=O)C(=O)N[C@@H]([C@@H](C)O)C(=O)N[C@@H](C)C(=O)N[C@@H]([C@@H](C)O)C(=O)N1)[C@@H](C)O)C(=O)N1CCC[C@H]1C(=O)N[C@@H](CO)C(=O)N[C@@H](CO)C(=O)N[C@H](C(=O)N[C@@H](CC(N)=O)C(=O)N[C@H](C(=O)NCC(=O)N[C@@H](CO)C(=O)N[C@@H](Cc1c[nH]cn1)C(=O)N[C@H](C(=O)N[C@@H](Cc1ccc(O)cc1)C(N)=O)[C@@H](C)O)C(C)C)[C@@H](C)O
# notes: Synthetic analogue, extended by Lys at the N-terminus; also called compound 44
# B2: N^-1-[(4S)-4-carboxy-4-(19-carboxynonadecanoylamino)butanoyl]-Gly[Arg1,Arg17,Pro21,Pro27]-h-amylin (peptide)
# peptide: {C20 diacid-γGlu}-GRCNTATCATQRLANFLRHSSPNFGAIPSSTNVGSNTY-NH2
# modifications: disulfide 3-8
# SMILES: CC[C@H](C)[C@H](NC(=O)[C@H](C)NC(=O)CNC(=O)[C@H](Cc1ccccc1)NC(=O)[C@H](CC(N)=O)NC(=O)[C@@H]1CCCN1C(=O)[C@H](CO)NC(=O)[C@H](CO)NC(=O)[C@H](Cc1c[nH]cn1)NC(=O)[C@H](CCCNC(=N)N)NC(=O)[C@H](CC(C)C)NC(=O)[C@H](Cc1ccccc1)NC(=O)[C@H](CC(N)=O)NC(=O)[C@H](C)NC(=O)[C@H](CC(C)C)NC(=O)[C@H](CCCNC(=N)N)NC(=O)[C@H](CCC(N)=O)NC(=O)[C@@H](NC(=O)[C@H](C)NC(=O)[C@@H]1CSSC[C@H](NC(=O)[C@H](CCCNC(=N)N)NC(=O)CNC(=O)CC[C@H](NC(=O)CCCCCCCCCCCCCCCCCCC(=O)O)C(=O)O)C(=O)N[C@@H](CC(N)=O)C(=O)N[C@@H]([C@@H](C)O)C(=O)N[C@@H](C)C(=O)N[C@@H]([C@@H](C)O)C(=O)N1)[C@@H](C)O)C(=O)N1CCC[C@H]1C(=O)N[C@@H](CO)C(=O)N[C@@H](CO)C(=O)N[C@H](C(=O)N[C@@H](CC(N)=O)C(=O)N[C@H](C(=O)NCC(=O)N[C@@H](CO)C(=O)N[C@@H](CC(N)=O)C(=O)N[C@H](C(=O)N[C@@H](Cc1ccc(O)cc1)C(N)=O)[C@@H](C)O)C(C)C)[C@@H](C)O
# notes: Synthetic analogue, extended by Gly at the N-terminus; also called compound 46
# B3: N^-1-[(4S)-4-carboxy-4-(19-carboxynonadecanoylamino)butanoyl]-Gly[Arg1,Arg17,Pro21,Pro27,His35]-h-amylin (peptide)
# peptide: {C20 diacid-γGlu}-GRCNTATCATQRLANFLRHSSPNFGAIPSSTNVGSHTY-NH2
# modifications: disulfide 3-8
# SMILES: CC[C@H](C)[C@H](NC(=O)[C@H](C)NC(=O)CNC(=O)[C@H](Cc1ccccc1)NC(=O)[C@H](CC(N)=O)NC(=O)[C@@H]1CCCN1C(=O)[C@H](CO)NC(=O)[C@H](CO)NC(=O)[C@H](Cc1c[nH]cn1)NC(=O)[C@H](CCCNC(=N)N)NC(=O)[C@H](CC(C)C)NC(=O)[C@H](Cc1ccccc1)NC(=O)[C@H](CC(N)=O)NC(=O)[C@H](C)NC(=O)[C@H](CC(C)C)NC(=O)[C@H](CCCNC(=N)N)NC(=O)[C@H](CCC(N)=O)NC(=O)[C@@H](NC(=O)[C@H](C)NC(=O)[C@@H]1CSSC[C@H](NC(=O)[C@H](CCCNC(=N)N)NC(=O)CNC(=O)CC[C@H](NC(=O)CCCCCCCCCCCCCCCCCCC(=O)O)C(=O)O)C(=O)N[C@@H](CC(N)=O)C(=O)N[C@@H]([C@@H](C)O)C(=O)N[C@@H](C)C(=O)N[C@@H]([C@@H](C)O)C(=O)N1)[C@@H](C)O)C(=O)N1CCC[C@H]1C(=O)N[C@@H](CO)C(=O)N[C@@H](CO)C(=O)N[C@H](C(=O)N[C@@H](CC(N)=O)C(=O)N[C@H](C(=O)NCC(=O)N[C@@H](CO)C(=O)N[C@@H](Cc1c[nH]cn1)C(=O)N[C@H](C(=O)N[C@@H](Cc1ccc(O)cc1)C(N)=O)[C@@H](C)O)C(C)C)[C@@H](C)O
# notes: Synthetic analogue, extended by Gly at the N-terminus; also called compound 47
# B4: N^ε-[2-[2-[2-[[(4S)-4-carboxy-4-(19-carboxynonadecanoylamino)butanoyl]amino]ethoxy]ethoxy]acetyl]Lys[Arg1,Arg17,Pro21,Pro27,His35]-h-amylin (peptide)
# peptide: K([AEEA-γGlu-C20 diacid])RCNTATCATQRLANFLRHSSPNFGAIPSSTNVGSHTY-NH2
# modifications: disulfide 3-8; N-terminus assumed
# SMILES: CC[C@H](C)[C@H](NC(=O)[C@H](C)NC(=O)CNC(=O)[C@H](Cc1ccccc1)NC(=O)[C@H](CC(N)=O)NC(=O)[C@@H]1CCCN1C(=O)[C@H](CO)NC(=O)[C@H](CO)NC(=O)[C@H](Cc1c[nH]cn1)NC(=O)[C@H](CCCNC(=N)N)NC(=O)[C@H](CC(C)C)NC(=O)[C@H](Cc1ccccc1)NC(=O)[C@H](CC(N)=O)NC(=O)[C@H](C)NC(=O)[C@H](CC(C)C)NC(=O)[C@H](CCCNC(=N)N)NC(=O)[C@H](CCC(N)=O)NC(=O)[C@@H](NC(=O)[C@H](C)NC(=O)[C@@H]1CSSC[C@H](NC(=O)[C@H](CCCNC(=N)N)NC(=O)[C@@H](N)CCCCNC(=O)COCCOCCNC(=O)CC[C@H](NC(=O)CCCCCCCCCCCCCCCCCCC(=O)O)C(=O)O)C(=O)N[C@@H](CC(N)=O)C(=O)N[C@@H]([C@@H](C)O)C(=O)N[C@@H](C)C(=O)N[C@@H]([C@@H](C)O)C(=O)N1)[C@@H](C)O)C(=O)N1CCC[C@H]1C(=O)N[C@@H](CO)C(=O)N[C@@H](CO)C(=O)N[C@H](C(=O)N[C@@H](CC(N)=O)C(=O)N[C@H](C(=O)NCC(=O)N[C@@H](CO)C(=O)N[C@@H](Cc1c[nH]cn1)C(=O)N[C@H](C(=O)N[C@@H](Cc1ccc(O)cc1)C(N)=O)[C@@H](C)O)C(C)C)[C@@H](C)O
# notes: Synthetic analogue, extended by Lys at the N-terminus; also called compound 45
# B5: N^ε1-[(4S)-4-carboxy-4-(19-carboxynonadecanoylamino)butanoyl]-[Arg17,Pro21,Pro27]-h-amylin (peptide)
# peptide: K([γGlu-C20 diacid])CNTATCATQRLANFLRHSSPNFGAIPSSTNVGSNTY-NH2
# modifications: disulfide 2-7; N-terminus assumed
# SMILES: CC[C@H](C)[C@H](NC(=O)[C@H](C)NC(=O)CNC(=O)[C@H](Cc1ccccc1)NC(=O)[C@H](CC(N)=O)NC(=O)[C@@H]1CCCN1C(=O)[C@H](CO)NC(=O)[C@H](CO)NC(=O)[C@H](Cc1c[nH]cn1)NC(=O)[C@H](CCCNC(=N)N)NC(=O)[C@H](CC(C)C)NC(=O)[C@H](Cc1ccccc1)NC(=O)[C@H](CC(N)=O)NC(=O)[C@H](C)NC(=O)[C@H](CC(C)C)NC(=O)[C@H](CCCNC(=N)N)NC(=O)[C@H](CCC(N)=O)NC(=O)[C@@H](NC(=O)[C@H](C)NC(=O)[C@@H]1CSSC[C@H](NC(=O)[C@@H](N)CCCCNC(=O)CC[C@H](NC(=O)CCCCCCCCCCCCCCCCCCC(=O)O)C(=O)O)C(=O)N[C@@H](CC(N)=O)C(=O)N[C@@H]([C@@H](C)O)C(=O)N[C@@H](C)C(=O)N[C@@H]([C@@H](C)O)C(=O)N1)[C@@H](C)O)C(=O)N1CCC[C@H]1C(=O)N[C@@H](CO)C(=O)N[C@@H](CO)C(=O)N[C@H](C(=O)N[C@@H](CC(N)=O)C(=O)N[C@H](C(=O)NCC(=O)N[C@@H](CO)C(=O)N[C@@H](CC(N)=O)C(=O)N[C@H](C(=O)N[C@@H](Cc1ccc(O)cc1)C(N)=O)[C@@H](C)O)C(C)C)[C@@H](C)O
# notes: Synthetic analogue; also called compound 48
# Target: T1, human calcitonin receptor
# Test: SPA radioligand competition (125I-calcitonin), membranes of BHK cells with human calcitonin receptor
# Procedure, shortened: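 BHK hCTR membranes 35 ng/μL + SPA beads 0.05 mg/well; buffer 50 mM Hepes pH 7.4, 1 mM CaCl2, 5 mM MgCl₂, 0.1% OA, 0.02% Tween20. 120 min, 25° C., shaking. Scintillation count; IC50 by one-site binding competition.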
row,Binder,IC50
1,B1,4.87 nM
2,B2,9.53 nM
3,B3,15.5 nM
4,B4,14.8 nM
5,B5,30.9 nM

# Target: T1, human calcitonin receptor
# Test: ratio IC50 hCTR / IC50 hAmylin-R of the two SPA competition assays; reference: human amylin receptor
# Procedure, shortened: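 Competition binding by SPA uses membrane preparations (35 ng/μL final) in pH 7.4 Hepes buffer with 1 mM CaCl2 and 5 mM MgCl₂. Incubation lasts 120 min at 25° C, and IC₅₀ comes from one-site fitting.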
row,Binder,Ratio hCT/hAmylin binding
1,B1,17.7
2,B2,48.9
3,B3,44.9
4,B4,26.8
5,B5,69.7
